Data on eight variants can be found in paper PMC10707181, “Neuronal Scaffold Protein ARMS Interacts with Synaptotagmin-4 C2AB through the Ankyrin Repeat Domain with an Unexpected Mode” (International Journal of Molecular Sciences, 2023).

First the molecules themselves.
B1: Syt4 132–425 [human] / ARMS ankyrin repeats 1–11 (R1-11, residues 1–365) [rat] (parent)
chain 1: MSVLISQSVINYVEEENIPALKALLEKCKDVDERNECGQTPLMLAAEQGNVEIVKELLKNGANCNLEDLDNWTALISASKEGHIHIVEELLKSGASLEHRDMGGWTALMWACYKGRTDVVELLLSHGANPSVTGLYSVYPIIWAAGRGHADIVHLLLQNGAKVNCSDKYGTTPLVWAARKGHLECVKHLLAMGADVDQEGANSMTALIVAVKGGYTQSVKEILKRNPNVNLTDKDGNTALMIASKEGHIEIVQDLLDAGTYVNIPDRSGDTVLIGAVRGGHVEIVRALLQKYADIDIRGQDNKTALYWAVEKGNATMVRDILQCNPDTEICTKDGETPLIKATKMRNIEVVELLLDKGAKVSAVD
chain 2: ESVSPESLKSSTSLTSEEKQEKLGTLFFSLEYNFERKAFVVNIKEARGLPAMDEQSMTSDPYIKMTILPEKKHKVKTRVLRKTLDPAFDETFTFYGIPYTQIQELALHFTILSFDRFSRDDIIGEVLIPLSGIELSEGKMLMNREIIKRNVRKSSGRGELLISLCYQSTTNTLTVVVLKARHLPKSDVSGLSDPYVKVNLYHAKKRISKKKTHVKKCTPNAVFNELFVFDIPCEGLEDISVEFLVLDSERGSRNEVIGQLVLGAAAEGTGGEHWKEICDYPRRQIAKWHVLCDG

The variants in the first test derive from B1. The test can be described thus: ITC. Conditions: with ARMS ankyrin repeats 1–11 (R1-11, residues 1–365) [rat].
Regarding chain 2 ESVSPESLKSSTSLTSEEKQEKLGTLFFSLEYNFERKAFVVNIKEARGLPAMDEQSMTSDPYIKMTILPEKKHKVKTRVLRKTLDPAFDETFTFYGIPYTQIQELALHFTILSFDRFSRDDIIGEVLIPLSGIELSEGKMLMNREIIKRNVRKSSGAGELLISLCYQSTTNTLTVVVLKARHLPKSDVSGLSDPYVKVNLYHAKKRISKKKTHVKKCTPNAVFNELFVFDIPCEGLEDISVEFLVLDSERGSRNEVIGQLVLGAAAEGTGGEHWKEICDYPRRQIAKWHVLCDG [chain 2 R157A], the ratio to parent stood at 0.8. Same read-out and setting: the value for chain 2 ESVSPESLKSSTSLTSEEKQEKLGTLFFSLEYNFERKAFVVNIKEARGLPAMDEQSMTSDPYIKMTILPEKKHKVKTRVLRKTLDPAFDETFTFYGIPYTQIQELALHFTILSFDRFSRDDIIGEVLIPLSGIELSEGKMLMNREIIKRNVRASSGRGELLISLCYQSTTNTLTVVVLKARHLPKSDVSGLSDPYVKVNLYHAKKRISKKKTHVKKCTPNAVFNELFVFDIPCEGLEDISVEFLVLDSERGSRNEVIGQLVLGAAAEGTGGEHWKEICDYPRRQIAKWHVLCDG [chain 2 K153A] was 0.3.

As for chain 2 ESVSPESLKSSTSLTSEEKQEKLGTLFFSLEYNFERKAFVVNIKEARGLPAMDEASMTSDPYIKMTILPEKKHKVKTRVLRKTLDPAFDETFTFYGIPYTQIQELALHFTILSFDRFSRDDIIGEVLIPLSGIELSEGKMLMNREIIKRNVRKSSGRGELLISLCYQSTTNTLTVVVLKARHLPKSDVSGLSDPYVKVNLYHAKKRISKKKTHVKKCTPNAVFNELFVFDIPCEGLEDISVEFLVLDSERGSRNEVIGQLVLGAAAEGTGGEHWKEICDYPRRQIAKWHVLCDG [chain 2 Q55A], the ratio to parent amounted to 0.3. On the same count and under the same terms, the value for chain 2 ESVSPESLKSSTSLTSEEKQEKLGTLFFSLEYNFERKAFVVNIKEARGLPAMDEQSMTSDPYIKMTILPEKKHKVKTRVLRKTLDPAFDETFTFYGIPYTQIQELALHFTILSFDRFSRDDIIGEVLIPLSGIELSEGKMLMNREIIAANVAKSSGRGELLISLCYQSTTNTLTVVVLKARHLPKSDVSGLSDPYVKVNLYHAKKRISKKKTHVKKCTPNAVFNELFVFDIPCEGLEDISVEFLVLDSERGSRNEVIGQLVLGAAAEGTGGEHWKEICDYPRRQIAKWHVLCDG [chain 2 K148A R149A R152A] was 1.6; that for chain 2 ESVSPESLKSSTSLTSEEKQEKLGTLFFSLEYNFERKAFVVNIKEARGLPAMDEQSMTSDPYIKMTILPEKKHKVKTRVLRKTLDPAFDETFTFYGIPYTQIQELALHFTILSFDRFSRDDIIGEVLIPLSGIELSEGKMLMNREIIAANVRKSSGRGELLISLCYQSTTNTLTVVVLKARHLPKSDVSGLSDPYVKVNLYHAKKRISKKKTHVKKCTPNAVFNELFVFDIPCEGLEDISVEFLVLDSERGSRNEVIGQLVLGAAAEGTGGEHWKEICDYPRRQIAKWHVLCDG [chain 2 K148A R149A] was 0.8; that for chain 2 ESVSPESLKSSTSLTSEEKQEKLGTLFFSLEYNFERKAFVVNIKEARGLPAMDEQSMTSDPYIKMTILPEKKHKVKTRVLRKTLDPAFDETFTFYGIPYTQIQELALHFTILSFDRFSRDDIIGEVLIPLSGIELSEGKMLMNREIIKRNVAKSSGRGELLISLCYQSTTNTLTVVVLKARHLPKSDVSGLSDPYVKVNLYHAKKRISKKKTHVKKCTPNAVFNELFVFDIPCEGLEDISVEFLVLDSERGSRNEVIGQLVLGAAAEGTGGEHWKEICDYPRRQIAKWHVLCDG [chain 2 R152A] was 0.3. On the same count and under the same terms, for chain 2 ESVSPESLKSSTSLTSEEKQEKLGTLFFSLEYNFERKAFVVNIKEARGLPAMDEQSMTSDPYIKMTILPEKKHKVKTRVLRKTLDPAFDETFTFYGIPYTQIQELALHFTILSFDRFSRDDIIGEVLIPLSGIELSEGKMLMNREIIKRNVAASSGRGELLISLCYQSTTNTLTVVVLKARHLPKSDVSGLSDPYVKVNLYHAKKRISKKKTHVKKCTPNAVFNELFVFDIPCEGLEDISVEFLVLDSERGSRNEVIGQLVLGAAAEGTGGEHWKEICDYPRRQIAKWHVLCDG [chain 2 R152A K153A] the value was 0.3.

The same test, now with this note: with Syt4 132–425 [human].
For chain 1 MSVLISQSVINYVEEENIPALKALLEKCKDVDERNECGQTPLMLAAEQGNVEIVKELLKNGANCNLEDLDNWTALISASKEGHIHIVEELLKSGASLEHRDMGGWTALMWACYKGRTDVVELLLSHGANPSVTGLYSVYPIIWAAGRGHADIVHLLLQNGAKVNCSDKYGTTPLVWAARAGHLECVKHLLAMGADVDQEGANSMTALIVAVKGGYTQSVKEILKRNPNVNLTDKDGNTALMIASKEGHIEIVQDLLDAGTYVNIPDRSGDTVLIGAVRGGHVEIVRALLQKYADIDIRGQDNKTALYWAVEKGNATMVRDILQCNPDTEICTKDGETPLIKATKMRNIEVVELLLDKGAKVSAVD [chain 1 K180A], the ratio to parent is 0.9.
